Measurements: publication PMC1635298
Where two headings read alike, the source gives them in different places.

Legend:
Assay in all cases: EMSA
[1] = target: T1, Slx5-Slx8 complex, Slx8 subunit;Slx5 (Saccharomyces cerevisiae;Saccharomyces …, UniProt P40072;P32828 1-274;1-619, |)
T1 sequence 1: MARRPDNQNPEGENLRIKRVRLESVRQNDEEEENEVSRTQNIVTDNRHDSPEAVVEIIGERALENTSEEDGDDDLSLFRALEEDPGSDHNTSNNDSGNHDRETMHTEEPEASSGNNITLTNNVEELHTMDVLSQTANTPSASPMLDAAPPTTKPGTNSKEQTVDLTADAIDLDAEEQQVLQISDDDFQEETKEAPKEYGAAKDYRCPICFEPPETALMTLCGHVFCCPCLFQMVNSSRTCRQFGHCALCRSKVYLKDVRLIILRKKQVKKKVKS
T1 sequence 2: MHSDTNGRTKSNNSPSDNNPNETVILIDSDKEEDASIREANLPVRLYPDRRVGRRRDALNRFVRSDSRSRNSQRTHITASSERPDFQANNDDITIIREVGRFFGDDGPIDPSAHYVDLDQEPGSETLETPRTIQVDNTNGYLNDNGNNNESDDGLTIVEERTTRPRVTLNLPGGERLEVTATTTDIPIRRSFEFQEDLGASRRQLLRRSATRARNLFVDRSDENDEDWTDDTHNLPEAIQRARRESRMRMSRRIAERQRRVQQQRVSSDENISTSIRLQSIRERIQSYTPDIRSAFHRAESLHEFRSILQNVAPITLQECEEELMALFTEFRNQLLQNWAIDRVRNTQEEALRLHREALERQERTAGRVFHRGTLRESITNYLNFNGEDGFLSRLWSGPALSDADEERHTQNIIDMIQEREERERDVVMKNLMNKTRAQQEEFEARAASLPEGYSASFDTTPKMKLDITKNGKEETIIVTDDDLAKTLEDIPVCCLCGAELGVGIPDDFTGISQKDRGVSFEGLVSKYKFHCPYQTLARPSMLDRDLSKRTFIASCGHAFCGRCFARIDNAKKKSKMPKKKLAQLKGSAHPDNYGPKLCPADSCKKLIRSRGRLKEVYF

[2] = target: T1, Slx5-Slx8 complex, Slx8 subunit;Slx5; remark: listed apart in the source
[3] = target: T1, Slx5-Slx8 complex, Slx8 subunit;Slx5; remark: listed apart in the source
[4] = target: T2, Slx5 (Saccharomyces cerevisiae, UniProt P32828 1-619)
T2 sequence: T1 sequence 2

[5] = target: T1, Slx5-Slx8 complex, Slx8 subunit;Slx5; remark: listed apart in the source
[6] = target: T3, Slx8 (Saccharomyces cerevisiae, UniProt P40072 1-274)
T3 sequence: T1 sequence 1

[7] = target: T1, Slx5-Slx8 complex, Slx8 subunit;Slx5; remark: listed apart in the source

GACGCTGCCGAATTCTGGCGTTAGGAGATACCGATAAGCTTCGGCTTAA (ssDNA) [49 nt ssDNA (888)]
binding result [1]: no binding

B1: 15 bp dsDNA (1312/1320) (dsDNA)
DNA 1: TATCTCCTAACGCCA
DNA 2: TGGCGTTAGGAGATA
binding result [2]: no binding

B2: 30 bp dsDNA (1313/1314) (dsDNA)
DNA 1: TGGCGTTAGGAGATACCGATAAGCTTCGGC
DNA 2: GCCGAAGCTTATCGGTATCTCCTAACGCCA
binding result [3]: binds

B3: 45 bp dsDNA (1315/1316) (dsDNA)
DNA 1: GGGTCAACGTGGGCAAAGATGTCCTAGCAAGCCAGAATTCGGCAG
DNA 2: CTGCCGAATTCTGGCTTGCTAGGACATCTTTGCCCACGTTGACCC
binding result [4]: no binding
apparent K (half saturation) [5]: < 0.5 pmol (in reaction; standard volume 20 uL)
apparent K (half saturation) [6]: ~8 pmol (in reaction; standard volume 20 uL)

B4: 90 bp dsDNA (1317/1319) (dsDNA)
DNA 1: GATCCGAATTCTGGCTTGCTAGGACATCTTTGCCCACGTTGACCCGGGTTGGCGTTAGGAGATAGTCAGTTATAGCTGCGGCTGCTAAGG
DNA 2: GATCCCTTAGCAGCCGCAGCTATAACTGACTATCTCCTAACGCCAACCCGGGTCAACGTGGGCAAAGATGTCCTAGCAAGCCAGAATTCG
binding result [7]: binds
